From patent US20220298235A1 (AKESO BIOPHARMA, published 2022)

T1: human p40-His (human, UniProt P29460 23-328)
T1 construct: Made by Akeso Biopharma; construct limits and tag not described; also called human IL-12/IL-23 p40 protein domain; human IL-12/IL-23 p40; not shown: His tag
T1 sequence (looked up): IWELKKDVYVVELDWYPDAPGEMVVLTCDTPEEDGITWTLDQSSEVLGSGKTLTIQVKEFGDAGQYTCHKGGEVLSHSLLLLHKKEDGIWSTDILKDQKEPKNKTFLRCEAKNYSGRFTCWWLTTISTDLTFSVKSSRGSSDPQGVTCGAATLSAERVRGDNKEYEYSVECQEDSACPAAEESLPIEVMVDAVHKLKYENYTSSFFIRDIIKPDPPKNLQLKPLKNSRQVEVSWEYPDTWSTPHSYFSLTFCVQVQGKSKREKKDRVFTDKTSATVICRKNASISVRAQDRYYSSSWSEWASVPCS

T2: Human IL12 (His Tag) (human, UniProt P29459 23-219; P29460 23-328)
T2 construct: Bought His-tagged heterodimer
T2 sequence (looked up) 1: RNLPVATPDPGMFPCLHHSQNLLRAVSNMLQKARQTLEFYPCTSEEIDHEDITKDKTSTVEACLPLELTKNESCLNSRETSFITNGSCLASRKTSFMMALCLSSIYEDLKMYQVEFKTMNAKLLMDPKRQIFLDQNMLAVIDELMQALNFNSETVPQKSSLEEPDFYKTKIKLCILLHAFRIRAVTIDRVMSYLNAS
T2 sequence (looked up) 2: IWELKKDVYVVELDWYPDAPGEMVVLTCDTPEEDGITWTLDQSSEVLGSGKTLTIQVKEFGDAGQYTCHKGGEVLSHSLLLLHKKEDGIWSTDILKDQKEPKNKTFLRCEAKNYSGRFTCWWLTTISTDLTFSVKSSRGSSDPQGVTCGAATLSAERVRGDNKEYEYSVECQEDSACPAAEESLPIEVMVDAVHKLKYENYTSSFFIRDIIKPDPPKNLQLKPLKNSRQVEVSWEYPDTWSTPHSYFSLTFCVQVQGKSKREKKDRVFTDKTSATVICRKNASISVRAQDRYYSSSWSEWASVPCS

T3: human IL-23 (IL-23-His-Biotin) (human, UniProt Q9NPF7 20-189; P29460 23-328, biotin label, site not stated)
T3 construct: Akesobio lot 20161209; His-tagged and biotinylated
T3 sequence (looked up) 1: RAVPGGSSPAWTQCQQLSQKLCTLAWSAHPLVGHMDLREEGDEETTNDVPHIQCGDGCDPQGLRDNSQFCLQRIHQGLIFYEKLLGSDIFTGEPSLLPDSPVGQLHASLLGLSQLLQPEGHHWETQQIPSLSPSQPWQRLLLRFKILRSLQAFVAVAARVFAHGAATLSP
T3 sequence (looked up) 2: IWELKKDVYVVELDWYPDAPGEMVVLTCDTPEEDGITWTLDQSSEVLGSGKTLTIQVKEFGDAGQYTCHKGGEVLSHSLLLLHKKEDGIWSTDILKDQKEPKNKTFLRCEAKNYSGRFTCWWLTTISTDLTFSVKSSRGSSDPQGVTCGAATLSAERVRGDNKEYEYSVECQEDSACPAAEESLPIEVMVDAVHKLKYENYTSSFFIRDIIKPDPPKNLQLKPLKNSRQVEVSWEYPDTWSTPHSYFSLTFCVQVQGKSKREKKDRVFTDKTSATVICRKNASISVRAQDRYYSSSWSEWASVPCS


Columns and labels:
[1] = target: T1, human p40-His; test: indirect ELISA, p40-His coat 0.25 µg/mL
Description: (§1) A microplate was coated with human p40-His (Akeso Biopharma, Inc.; gene of p40: GeneBank NM002187). After incubation at 4° C. for no less than 12 h, the plate was washed with PBST, patted dry and blocked with a solution of 1% BSA in PBS. After blocking was completed, the plate was washed with PBST and patted dry. The antibody diluted with PBST solution in gradient was added into the wells of the plate, and the antibody dilution gradient is detailed in Table 1. The plate containing the test antibody was incubated at 37° C. for 30 min and then washed with PBST and patted dry. […] TMB (Neogen, 308177) was added for color developing for 5 min in the absence of light, and then stop solution was added to terminate the chromogenic reaction. Then the plate was put into a plate reader immediately, and the OD value of each well in the plate was read at 450 nm. The data were analyzed by SoftMax Pro 6.2.1.
The binding EC₅₀ of antibody was calculated by curve fitting using antibody concentration as the abscissa and absorbance value as the ordinate, and the results are shown in Table 4 below.

[2] = target: T2, Human IL12 (His Tag); test: FACS competition, IL12-His (40 nM mixed 1:1) on 293T-IL-12Rβ1&IL-23R cells
Description: 200 μL of 1% PBSA was added into each sample, and the mixture was centrifuged at 1200 rpm for 5 min to discard the supernatant. According to experiment design, correspondingly diluted antibody (highest final concentration of 60 μg/mL, 3-fold dilution, 8 concentrations in total) and IL12-His (Sino Biological, Cat. No.: CT-050-H08H-20) (40 nM) were mixed at a ratio of 1:1, and a blank control was set. The mixture of antibody and IL12 was incubated on ice for 30 min and then added to the cell precipitate at 100 μL/sample. The resulting mixture was well mixed and incubated on ice for 60 min 200 μL of 1% PBSA was added, and the mixture was centrifuged at 1200 rpm for 5 min to discard the supernatant, and then washed twice. THETM His tag antibody (FITC) (Genscript, Cat. No.: A01620) was diluted at a ratio of 1:500 and added to each tube at 100 μL. The mixture was well mixed and incubated on ice for 40 min in the absence of light. 200 μL of 1% PBSA was added, and the mixture was centrifuged at 1200 rpm for 5 min to discard the supernatant, and then washed twice. 1% PBSA was added at 200 μL/tube, and the cells were resuspended and transferred to a flow cytometry tube for testing.

[3] = target: T3, human IL-23 (IL-23-His-Biotin); test: FACS competition, IL23-His-Biotin (4 µg/mL mixed 1:1) on 293T-IL-12Rβ1&IL-23R cells
Description: 200 μL of 1% PBSA was added into each sample, and the mixture was centrifuged at 1200 rpm for 5 min to discard the supernatant. According to experiment design, correspondingly diluted antibody (highest concentration of 60 μg/mL, 3-fold dilution, 8 concentrations in total) and human IL23-His-Biotin (Akeso Biopharma, Inc., Lot. No.: 20161209) (4 μg/mL) were mixed at a ratio of 1:1, and a blank control was set. The mixture of antibody and IL23-His-Biotin was incubated on ice for 30 min and then added to the cell precipitate at 100 μL/sample. The resulting mixture was well mixed and incubated on ice for 60 min. 200 μL of 1% PBSA was added, and the mixture was centrifuged at 1200 rpm for 5 min to discard the supernatant, and then washed twice. FITC Steptavidin (Biolegend, Cat. No.: 405202) was diluted at a ratio of 1:500 and added to each tube at 100 μL. The mixture was well mixed and incubated on ice for 40 min in the absence of light. 200 μL of 1% PBSA was added, and the mixture was centrifuged at 1200 rpm for 5 min to discard the supernatant, and then washed twice. 1% PBSA was added at 200 μL/tube, and the cells were resuspended and transferred to a flow cytometry tube for testing.

[4] = target: T1, human p40-His; test: indirect ELISA, p40-His coat 0.125 µg/mL
Description: as §1
The binding EC₅₀ of antibody was calculated by curve fitting using antibody concentration as the abscissa and absorbance value as the ordinate, and the results are shown in Table 1 below.

| EC50 [1] [nM] | EC50 [2] [µg/mL] | EC50 [3] [µg/mL] | EC50 [4] [nM] | Binder |
| --- | --- | --- | --- | --- |
| 0.077 | 1.58 | 1.43 |  | ustekinumab (antibody, V domains shown) VH: EVQLVQSGAEVKKPGESLKISCKGSGYSFTTYWLGWVRQMPGKGLDWIGIMSPVDSDIRYSPSFQGQVTMSVDKSITTAYLQWNSLKASDTAMYYCARRRPGQGYFDFWGQGTLVTVSS VL: DIQMTQSPSSLSASVGDRVTITCRASQGISSWLAWYQQKPEKAPKSLIYAASSLQSGVPSRFSGSGSGTDFTLTISSLQPEDFATYYCQQYNIYPYTFGQGTKLEIK |
|  |  |  | 0.079 | H5L9 (antibody, human IgG1, kappa, V domains shown, human IgG1 (P01857) / kappa (P01834) constant regions; also called humanized antibody H5L9) VH: EVQLVQSGAEVKKPGESLKISCQSSGYSFTTYWIGWVRQMPGQGLEWIGIMSPVDSDIRYNPMFRGQVTMSVDKSSSTAYLQWSSLKASDTAMYYCARRRPGQGYFDFWGQGTMVTVSS VL: DIQMTQSPSSLSASVGDRVTITCKASQNVGSWLAWYQQKPGKAPKSLIYSASSRQSGVPSRFSGSGSGTDFTLTISSLQPEDFATYYCQQYDIYPFTFGQGTKLEIKR |
